According to US20220227870A1 (Innovent, published 2022):

Tests used:
[1] = target: T1, h CD47 (Acrobiosystems) (human, UniProt Q08722 19-139); test: ForteBio Octet BLI; antibody loaded on AHC sensor, h CD47 100 nM in solution
T1 construct: Bought soluble antigen; also called CD47 protein in solution
Experimental: (§1) The anti-human IgG Fc biosensor AHC was immersed in each well containing the antibody solution, and immersed at room temperature for 600 seconds to load the samples. The sensor was then washed in SD buffer until it returned to the baseline, and then immersed in a well containing 100 μL of the antigen solution to monitor the association of the antibody with the antigen. The sensor was then transferred to a well containing 100 ul of SD buffer to monitor the antibody dissociation. The rotation speed was 400 rpm and the temperature was 30° C. The background-corrected association and dissociation curves were plotted by the Octet analysis software (ForteBio) to generate the association (k_{∞}) rate constant and dissociation (kdis) rate constant, which are then used to calculate the equilibrium dissociation constant (KD).

[2] = target: T2, human CD47 expressed on the surface of cells (CHO-S-CD47 cells) (human, UniProt Q08722 19-323); test: FACS on CHO-S cells overexpressing human CD47, PE-conjugated anti-human Fc detection, MFI
T2 construct: whole, on cells; also called CHO-S cells overexpressing CD47; CHO-CD47
Experimental: The cell suspension was centrifuged at 400 g on a centrifuge for 5 minutes to remove the cell medium. […] The cell suspension was centrifuged at 400 g for 5 minutes, and then the supernatant was removed, and the cells were washed with PBS to remove the unbound antibodies. The obtained cell suspension was centrifuged at 400 g for 5 minutes to remove PBS. 100 μL of the solution of PE-conjugated anti-human Fc antibody (Jackson Immuno Research) diluted at a ratio of 1:200 was added to each well, and the cells were incubated in the dark on the ice for 30 minutes. Then the cell suspension was centrifuged at 400 g for 5 minutes and the supernatant was removed. The cells were washed with PBS to remove the unbound PE-conjugated anti-human Fc antibody. The cells were resuspended with 100 μL of PBS, and the binding of the antibodies to cells was assayed by FACS.

[3] = target: T3, rh PD-L1 (Acrobiosystems) (human, UniProt Q9NZQ7 19-238); test: ForteBio Octet BLI; antibody loaded on AHC sensor, antigen 100 nM in solution; note: N.B: Not detectable
T3 construct: Bought soluble antigen; also called PD-L1 protein in solution
Experimental: as §1

[4] = target: T4, tumor cells H292 (ATCC), co-incubated with human red blood cells; test: flow cytometry; CFSE-labelled H292 cells co-incubated 1:20 with human red blood cells; antibody 0.014 nM
T4 construct: also called H292 cells
Experimental: (§2) The mixture was then gently added to 4 tubes each with 12.5 ml of FiColl (Thermo). The samples were centrifuged at 400 g for 30 min with zero deceleration. The upper serum and PBMC were removed to obtain red blood cells in the lowest layer.
(§3) Tumor cells H292 (ATCC) were fluorescently labeled with fluorochrome CFSE according to the instructions of CellTrace™ CFSE Cell Proliferation Kit (Invitrogen, catalog number: C34554). The labeled tumor cells were co-cultured with the aforementioned isolated human red blood cells at a ratio of 1:20 in terms of cell number, and meanwhile, tested antibody solutions of different concentrations were added. The cells were incubated at 4° C. for 30 min. […] The cells were washed at least twice with PBS and analyzed by flow cytometry.

[5] = target: T4, tumor cells H292 (ATCC), co-incubated …; test: flow cytometry; CFSE-labelled H292 cells co-incubated 1:20 with human red blood cells; antibody 0.041 nM
Experimental: as §3

[6] = target: T4, tumor cells H292 (ATCC), co-incubated …; test: flow cytometry; CFSE-labelled H292 cells co-incubated 1:20 with human red blood cells; antibody 0.123 nM
Experimental: as §3

[7] = target: T4, tumor cells H292 (ATCC), co-incubated …; test: flow cytometry; CFSE-labelled H292 cells co-incubated 1:20 with human red blood cells; antibody 0.370 nM
Experimental: as §2, §3

[8] = target: T4, tumor cells H292 (ATCC), co-incubated …; test: flow cytometry; CFSE-labelled H292 cells co-incubated 1:20 with human red blood cells; antibody 1.111 nM
Experimental: as §3

[9] = target: T4, tumor cells H292 (ATCC), co-incubated …; test: flow cytometry; CFSE-labelled H292 cells co-incubated 1:20 with human red blood cells; antibody 3.333 nM
Experimental: as §2, §3

[10] = target: T4, tumor cells H292 (ATCC), co-incubated …; test: flow cytometry; CFSE-labelled H292 cells co-incubated 1:20 with human red blood cells; antibody 10.000 nM
Experimental: as §2, §3

B1: anti-CD47 antibody ADI-29341 (antibody, V domains shown)
VH: QVQLQESGPGLVKPSETLSLTCTVSGGSIEHYYWSWIRQPPGKGLEWIGYIYYSGSTNYNPSLKSRVTISVDTSKNQFSLKLSSVTAADTAVYYCARGKTGSAAWGQGTLVTVSS
VL: DIQMTQSPSSVSASVGDRVTITCRASQGISRWLAWYQQKPGKAPKLLIYAASSLQSGVPSRFSGSGSGTDFTLTISSLQPEDFATYYCQQTVSFPITFGGGTKVEIK
notes: captured on an anti-human IgG Fc sensor; also called parent antibody (anti-CD47)
- Kd [1]: 2.32 nM
- koff [1]: 0.0018 s⁻¹
- kon [1]: 774000 M⁻¹ s⁻¹
- EC50 (read off the curve) [2]: ~1 nM
- binding result [3]: no binding (tested: 100 nM)
- proportion of antibody binding to H292 cells [4]: 3.59%
- proportion of antibody binding to H292 cells [5]: 17.7%
- proportion of antibody binding to H292 cells [6]: 5.74%
- proportion of antibody binding to H292 cells [7]: 14.4%
- proportion of antibody binding to H292 cells [8]: 6.15%
- proportion of antibody binding to H292 cells [9]: 8.42%
- proportion of antibody binding to H292 cells [10]: 3.9%
